Results: paper PMC7867234
Where a chain is given by its changes, count along the chain named.

These sequences were tested against T1, OmpR-His6 (Yersinia enterocolitica Ye9) (UniProt P74982) (assay: EMSA). Settings: 50 mM Tris-HCl pH 8.0, 100 mM KCl, 1 mM EDTA, 1 mM DTT, 20 mM MgCl2, 12% glycerol, 100 ug/mL BSA, 0.1% Triton X-100; 22 C, 15 min; 0.05 or 0.3 pmol DNA in ….
T1 sequence: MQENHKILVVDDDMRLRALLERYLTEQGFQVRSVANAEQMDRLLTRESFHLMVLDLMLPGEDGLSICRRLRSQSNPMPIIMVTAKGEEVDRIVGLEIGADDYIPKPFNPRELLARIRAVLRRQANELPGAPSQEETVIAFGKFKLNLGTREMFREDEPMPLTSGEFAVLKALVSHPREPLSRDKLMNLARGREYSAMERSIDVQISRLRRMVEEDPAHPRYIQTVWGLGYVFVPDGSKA

Sequence	binding
GCAGTCATATACTTAAATTATGCAACAATCCCATTCATCAATACATTGCATGATTAATCGGGCAAAGTGTGCAATTATATCTTTGTTAACAACCACGGTTTTCATTTGGGGCTAGCAGTTCTATAATGAGACGCAATTGAGAATATTGCGCCACGGATGTCATAGGCTGAACAGCCTTAATTTGAATCGATAGTAACAGGACTGAATCCGCATG (double strand) [F34]	binds
CAATACATTGCATGATTAATCGGGCAAAGTGTGCAATTATATCTTTGTTAACAACCACGGTTTTCATTTGGGGCTAGCAGTTCTATAATGAGACGCAATTGAGAATATTGCGCCACGGATGTCATAGGCTGAACAGCCTTAATTTGAATCGATAGTAACAGGACTGAATCCGCATG (double strand) [F4]	binds more weakly
CGTTGCTTCTATCCCTCTGGTTATACTCTGTTAAGCCACCCACAGATCCGCACTTTCATCCGTGCAAAATGAAAATAAACTGCTACAAATTTGTAACCTTATACTTTGCAGTCAT (double strand) [F2]	binds
GCAGTCATATACTTAAATTATGCAACAATCCCATTCATCAATACATTGCATGATTAATCGGGCAAAGTGTGCAATTATATCTTTGTTAACAACCACGGTTTTCATTTGGGGCTAGCAGTTCTATAATGAGACGCAA (double strand) [F3]	binds
GCATGATTAATCGGGCAAAGTGTGCAATTATATCTTTGTTAACAACCACGGTTTTCATTTGGGGCTAGCAGTTCTATAATGAGACGCAATTGAGAATATTGCGCCACGGATGTCATAGGCTGAACAGCC (double strand) [F0]	no binding
CGTTGCTTCTATCCCTCTGGTTATACTCTGTTAAGCCACCCACAGATCCGCACTTTCATCCGTGCAAAATGAAAATAAACTGCTACAAATTTGTAACCTTATACTTTGCAGTCATATACTTAAATTATGCAACAATCCCATTCATCAATACATTGCATGATTAATCGGGCAAAGTGTGCAATTATATCTTTGTTAACAACCACGGTTTTCATTTGGGGCTAGCAGTTCTATAATGAGACGCAA (double strand) [F23]	binds
TGACAAATGAGCGCGTTGAAGCTTGGGTAAAACAGATCAGCGAAGAACTGAATCTGGCCGAAATTACCGGTTAATTTGTCATGTCGGAAACGCGAGGATGAAATTTAATATTGCCACGCGTTTCCGTTGCTTCTATCCCTCTGGTTATACTCTGTTAAGCCACCCACAGATCCGCACTTTCATCCGTGCAAAATGAAAATAAACTGCTACAAATTTGTAACCTTATACTTTGCAGTCAT (double strand) [F12]	binds
TCATTTTGCACGGATGAAAGTGCGGATCTGTGGGTGGCTTAACAGAGTATAACCAGAGGGATAGAAGCAACGGAAACGCGTGGCAATATTAAATTTCATCCTCGCGTTTCCGACATGACAAATTAACCGGTAATTTCGGCCAGATTCAGTTCT (double strand) [F1]	binds more weakly

What follows are sequences tested against T2, OmpR-His6 (Yersinia enterocolitica Ye9) (UniProt P74982) (assay: EMSA). Settings: 50 mM Tris-HCl pH 8.0, 100 mM KCl, 1 mM EDTA, 1 mM DTT, 20 mM MgCl2, 12% glycerol, 100 ug/mL BSA, 0.1% Triton X-100; 22 C, 15 min; 0.05 or 0.3 pmol DNA in ….
T2 sequence: T1 sequence with T136A

Sequence	binding
GGTGGTAAAACAAGCGCAAATAGAAATCAGACTCATTAATTTTAAAAATGAAATCGTAATGAATATTTACTTTTGAGTCTTTAACCTGAGTTGAATATGAAAACGATTCTTACTATTATTATTTTAATCATTATTCATTAGTGGTGGAATTTCTCTGAACTCTGGTTTGCTAATGCGTTATAACGAGAGGCTTACATGCATCTGATCCCACAGCGCTCCTACAAAAT (double strand) [PfeoA]	binds more weakly
CAATCTATTCACGGGGCAACAAAAACGAACAAGATTGATAATTATTTTCATTATCAATTCATCCGGCTAATTGTTACATTTGCAATCAGAAAAAAGGTTTGTGTAAACAGCAAAACTCTTTGCTATAAAGTCAATGTTGTTACTACATCAATACCAGTGAAGGAGTCATTATGCCCGCGGTGAAGAAAAATAAGTTGCGCAATATTTCCCCATCATCCAAACCGATTTATCGCGACCAAATTATGCA (double strand) [PfepA]	binds
CCCCCTTATTCCAAATGGTTTTTATTTCTCCTTTCTGTTTTTGCAGCAAGAAATAATTCGTCTGTTTGCGACAAAATTGATTTACTTGGGAAATGTAATCATTAAGATTAGCGTTTCTAAAAAATTACAATCAGACACAATTCCTTTCGCAATAGGCCCAAAATGTTAACGTTTTCCCGTTTGTCTCTG (double strand) [PfecA]	binds
